Where two headings read alike, the source gives them in different places.

The results in this text go back to EP4806922A2 (Lyvgen Biopharma Holdings Limited, dated 2026).

The target in one test is T1, human CD137 protein (human, UniProt Q07011 24-186).
T1 construct: also called human CD137 expressing CHO cells
The experiment in a line: ELISA or FCM, graded summary. On the technique in general: ELISA stands for enzyme-linked immunosorbent assay.

The target in test [1] is T2, human CD3D/E protein (human, UniProt P04234 22-105; P07766 23-126).
T2 construct: also called human CD3 expressing Jurkat cells
T2 sequence (P04234 22-105, chain 1 of 2): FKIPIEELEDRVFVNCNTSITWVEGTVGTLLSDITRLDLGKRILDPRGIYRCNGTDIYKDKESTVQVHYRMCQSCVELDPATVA
T2 sequence (P07766 23-126, chain 2 of 2): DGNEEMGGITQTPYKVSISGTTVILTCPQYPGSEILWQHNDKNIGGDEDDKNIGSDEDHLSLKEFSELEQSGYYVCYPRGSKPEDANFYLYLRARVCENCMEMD
The experiment in a line: ELISA or FCM, graded summary.

For test [2], the target named is T3, human PD-L1 protein (human, UniProt Q9NZQ7 19-238). Kind of test: FCM or ELISA, graded summary.
T3 sequence (Q9NZQ7 19-238 limits assumed): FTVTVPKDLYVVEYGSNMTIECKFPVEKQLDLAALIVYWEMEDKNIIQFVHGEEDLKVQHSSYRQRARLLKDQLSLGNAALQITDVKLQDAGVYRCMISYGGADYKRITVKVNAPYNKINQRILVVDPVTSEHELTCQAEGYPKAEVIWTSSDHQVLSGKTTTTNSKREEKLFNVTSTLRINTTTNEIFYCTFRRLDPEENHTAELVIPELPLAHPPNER
Test [3] concerns the target T2, human CD3D/E protein. The experiment in a line: FCM or ELISA, graded summary.
The target of test [4] is T3, human PD-L1 protein. The experiment in a line: FCM or ELISA, graded summary. The source holds these as a separate data set.
A further test addresses T4, human BCMA protein (human, UniProt Q02223 1-54).
T4 construct: also called human BCMA expressing NCI-H929 cells; human BCMA overexpressing HEK293 cells
T4 sequence (looked up): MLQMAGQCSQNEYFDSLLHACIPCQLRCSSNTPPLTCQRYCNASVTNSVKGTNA
Kind of test: FCM or ELISA, graded summary.

T1 sequence (Q07011 24-186 limits assumed): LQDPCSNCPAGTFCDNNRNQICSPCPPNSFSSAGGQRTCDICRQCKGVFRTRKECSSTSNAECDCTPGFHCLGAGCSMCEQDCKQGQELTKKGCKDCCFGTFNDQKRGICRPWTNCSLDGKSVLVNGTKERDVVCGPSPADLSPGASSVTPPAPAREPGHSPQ

B1: Ly1630 (anti-CD137 parent) (antibody, V domains shown)
VH: QVQLVQSGAEVKKPGASVKVSCKASGYTFAGFEMHWVRQAPGQGLEWMGAIDPKTGGTDYNQKFKDRVTMTRDTSISTAYMELSRLRSDDTAVYYCARDLGYFDVWGQGTLVTVSS
VL: DIQMTQSPSSLSASVGDRVTITCRASQDIRSNLNWYQQKPGGAVKLLIYYTSRLHSGVPSRFSGSGSGTDYTLTISSLQPEDFATYFCQQSEKLPRTFGGGTKVEIR
notes: Parent monoclonal antibody used as control; also called anti-CD137 mAb Ly1630
Regarding B1, the binding result in the test with human CD137 protein is listed as “binds”.

B2: Ly305 (anti-CD3 parent) (antibody, V domains shown)
VH: EVQLVESGGGLVQPGGSLRLSCAASGFTFSTYAMNWVRQAPGKGLEWVGRIRSKYNNYATYYADSVKGRFTISRDDSKNSLYLQMNSLKTEDTAVYYCVRHGNFGNSYVSWFAYWGQGTLVTVSS
VL: QAVVTQEPSLTVSPGGTVTLTCRSSTGAVTTSNYANWVQQKPGQAPRGLIGGTNKRAPWTPARFSGSLLGGKAALTITGAQAEDEADYYCALWYSNLWVFGGGTKLTVL
notes: Parent monoclonal antibody used as control; also called anti-CD3 mAb Ly305; parental anti-CD3 mAb
For B2, the binding result with human CD3D/E protein [1] was “binds”.

B3: Ly076 (anti-PD-L1 parent) (antibody, V domains shown)
VH: QVQLVQSGAEVKKPGASVKVSCKASGYTFTDFWMSWVRQAPGQGLEWMGQIYPNTGTTHSNEKFKGRVTMTRDTSTSTVYMELSSLRSEDTAVYYCARSYHISTTPNWFAYWGQGTLVTVSS
VL: DIQMTQSPSSLSASVGDRVTITCKASQNVYKKLEWYQQKPGKVPKVLIYHTNILQTGVPSRFSGSGSGTDYTLTISSLQPEDVATYYCYQWNSGPTFGGGTKVEIK
notes: Parent monoclonal antibody used as control; also called anti-PD-L1 mAb Ly076
Turning to B3, the binding result with human PD-L1 protein [2] was “binds”.

B4: Ly2959 (BCMA/CD3/PD-L1) (other)
heavy 1: QVQLVQSGAEVKKPGASVKVSCKASGYTFTNHIIHWVRQAPGQGLEWMGYINPYPGYHAYNEKFQGRATMTSDTSTSTVYMELSSLRSEDTAVYYCARDGYYRDTDVLDYWGQGTLVTVSSASTKGPSVFPLAPSSKSTSGGTAALGCLVKDYFPEPVTVSWNSGALTSGVHTFPAVLQSSGLYSLSSVVTVPSSSLGTQTYICNVNHKPSNTKVDKKVEPKSCGGGGSGGGGSGGGGSGGGGSEVQLVESGGGLVQPGGSLRLSCAASGFTFSTYAMNWVRQAPGKGLEWVGRIRSKYNNYATYYADSVKGRFTISRDDSKNSLYLQMNSLKTEDTAVYYCVRHGNFGNSYVSWFAYWGQGTLVTVSSGGGGSDKTHTCPPCPAPELLGPSVFLFPPKPKDTLMISRTPEVTCVVVDVSHEDPEVKFNWYVDGVEVHNAKTKPREEQYNSTYRVVSVLTVLHQDWLNGKEYKCKVSNKALGAPIEKTISKAKGQPREPQVYTLPPSREEMTKNQVSLWCLVKGFYPSDIAVEWESNGQPENNYKTTPPVLDSDGSFFLYSKLTVDKSRWQQGNVFSCSVMHEALHNHYTQKSLSLSPGKGGGGSGGGGSGGGGSGGGGSQVQLVQSGAEVKKPGASVKVSCKASGYTFTDFWMSWVRQAPGQGLEWMGQIYPNTGTTHSNEKFKGRVTMTRDTSTSTVYMELSSLRSEDTAVYYCARSYHISTTPNWFAYWGQGTLVTVSS
heavy 2: QVQLVQSGAEVKKPGASVKVSCKASGYTFTNHIIHWVRQAPGQGLEWMGYINPYPGYHAYNEKFQGRATMTSDTSTSTVYMELSSLRSEDTAVYYCARDGYYRDTDVLDYWGQGTLVTVSSASTKGPSVFPLAPSSKSTSGGTAALGCLVKDYFPEPVTVSWNSGALTSGVHTFPAVLQSSGLYSLSSVVTVPSSSLGTQTYICNVNHKPSNTKVDKKVEPKSCGGGGSGGGGSGGGGSGGGGSQAVVTQEPSLTVSPGGTVTLTCRSSTGAVTTSNYANWVQQKPGQAPRGLIGGTNKRAPWTPARFSGSLLGGKAALTITGAQAEDEADYYCALWYSNLWVFGGGTKLTVLGGGGSDKTHTCPPCPAPELLGPSVFLFPPKPKDTLMISRTPEVTCVVVDVSHEDPEVKFNWYVDGVEVHNAKTKPREEQYNSTYRVVSVLTVLHQDWLNGKEYKCKVSNKALGAPIEKTISKAKGQPREPQVYTLPPSREEMTKNQVSLSCAVKGFYPSDIAVEWESNGQPENNYKTTPPVLDSDGSFFLVSKLTVDKSRWQQGNVFSCSVMHEALHNRFTQKSLSLSPGKGGGGSGGGGSGGGGSGGGGSDIQMTQSPSSLSASVGDRVTITCKASQNVYKKLEWYQQKPGKVPKVLIYHTNILQTGVPSRFSGSGSGTDYTLTISSLQPEDVATYYCYQWNSGPTFGGGTKVEIK
light: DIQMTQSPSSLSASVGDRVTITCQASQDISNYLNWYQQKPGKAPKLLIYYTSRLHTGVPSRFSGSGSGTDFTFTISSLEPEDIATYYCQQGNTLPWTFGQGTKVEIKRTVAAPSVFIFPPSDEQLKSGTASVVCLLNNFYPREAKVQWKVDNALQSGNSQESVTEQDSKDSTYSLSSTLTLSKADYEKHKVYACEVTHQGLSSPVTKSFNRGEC
notes: Multi-specific (tri-specific) antibody with three different chains HC1, HC2, LC1; also called BCMA(a) /CD3 /PD-L1
Take B4: the binding result with human CD3D/E protein [3], with human PD-L1 protein [4] and with human BCMA protein was “binds” each time.
